Results reported in IntAct's records for PubMed 12080061.

B1: 182 kDa tankyrase-1-binding protein (Homo sapiens), Q9C0C2 (parent)
chain: MKVSTLRESSAMASPLPREMEEELVPTGSEPGDTRAKPPVKPKPRALPAKPALPAKPSLLVPVGPRPPRGPLAELPSARKMNMLAGPQPYGGSKRPLPFAPRPAVEASTGGEATQETGKEEAGKEEPPPLTPPARCAAPGGVRKAPAPFRPASERFAATTVEEILAKMEQPRKEVLASPDRLWGSRLTFNHDGSSRYGPRTYGTTTAPRDEDGSTLFRGWSQEGPVKSPAECREEHSKTPEERSLPSDLAFNGDLAKAASSELPADISKPWIPSSPAPSSENGGPASPGLPAEASGSGPGSPHLHPPDKSSPCHSQLLEAQTPEASQASPCPAVTPSAPSAALPDEGSRHTPSPGLPAEGAPEAPRPSSPPPEVLEPHSLDQPPATSPRPLIEVGELLDLTRTFPSGGEEEAKGDAHLRPTSLVQRRFSEGVLQSPSQDQEKLGGSLAALPQGQGSQLALDRPFGAESNWSLSQSFEWTFPTRPSGLGVWRLDSPPPSPITEASEAAEAAEAGNLAVSSREEGVSQQGQGAGSAPSGSGSSWVQGDDPSMSLTQKGDGESQPQFPAVPLEPLPTTEGTPGLPLQQAEERYESQEPLAGQESPLPLATREAALPILEPVLGQEQPAAPDQPCVLFADAPEPGQALPVEEEAVTLARAETTQARTEAQDLCRASPEPPGPESSSRWLDDLLASPPPSGGGARRGAGAELKDTQSPSTCSEGLLGWSQKDLQSEFGITGDPQPSSFSPSSWCQGASQDYGLGGASPRGDPGLGERDWTSKYGQGAGEGSTREWASRCGIGQEEMEASSSQDQSKVSAPGVLTAQDRVVGKPAQLGTQRSQEADVQDWEFRKRDSQGTYSSRDAELQDQEFGKRDSLGTYSSRDVSLGDWEFGKRDSLGAYASQDANEQGQDLGKRDHHGRYSSQDADEQDWEFQKRDVSLGTYGSRAAEPQEQEFGKSAWIRDYSSGGSSRTLDAQDRSFGTRPLSSGFSPEEAQQQDEEFEKKIPSVEDSLGEGSRDAGRPGERGSGGLFSPSTAHVPDGALGQRDQSSWQNSDASQEVGGHQERQQAGAQGPGSADLEDGEMGKRGWVGEFSLSVGPQREAAFSPGQQDWSRDFCIEASERSYQFGIIGNDRVSGAGFSPSSKMEGGHFVPPGKTTAGSVDWTDQLGLRNLEVSSCVGSGGSSEARESAVGQMGWSGGLSLRDMNLTGCLESGGSEEPGGIGVGEKDWTSDVNVKSKDLAEVGEGGGHSQARESGVGQTDWSGVEAGEFLKSRERGVGQADWTPDLGLRNMAPGAVCSPGESKELGVGQMDWGNNLGLRDLEVTCDPDSGGSQGLRGCGVGQMDWTQDLAPQNVELFGAPSEAREHGVGGVSQCPEPGLRHNGSLSPGLEARDPLEARELGVGETSGPETQGEDYSSSSLEPHPADPGMETGEALSFGASPGRCPARPPPSGSQGLLEEMLAASSSKAVARRESAASGLGGLLEEEGAGAGAAQEEVLEPGRDSPPSWRPQPDGEASQTEDVDGTWGSSAARWSDQGPAQTSRRPSQGPPARSPSQDFSFIEDTEILDSAMYRSRANLGRKRGHRAPVIRPGGTLGLSEAADSDAHLFQDSTEPRASRVPSSDEEVVEEPQSRRTRMSLGTKGLKVNLFPGLSPSALKAKLRPRNRSAEEGELAESKSSQKESAVQRSKSCKVPGLGKPLTLPPKPEKSSGSEGSSPNWLQALKLKKKKV

Variants of: B1
Settings: with tnks1_human TNKS

| effect of a mutation on the interaction | Variant |
| --- | --- |
| disrupting interaction strength | G1513A |
